Measurements reported in patent US20240301067A1.

Experiments:
[1] = molecular target: Human PD-1 on CHO-S cells (human) (UniProt Q15116); assay: FACS on CHO-S.hPro1.C6 cells
[2] = molecular target: Cynomolgus monkey PD-1 on transiently transfected 293F cells (cynomolgus monkey); assay: FACS on cyno PD-1 transfected 293F cells, experiment 1
[3] = molecular target: Cynomolgus monkey PD-1 on transiently transfected 293F cells (cynomolgus monkey); assay: FACS on cyno PD-1 transfected 293F cells, experiment 2
[4] = molecular target: Human PD-1 on CHO-S cells (human) (UniProt Q15116); assay: FACS competition on CHO-S.hPro1.C6 cells; competitor hProL1.ECD.mFc 5 µg/mL
[5] = molecular target: Cynomolgus PD-1 (soluble analyte in SPR, Table 11) (cynomolgus) (UniProt B0LAJ3); assay: SPR Biacore 8K; antibody captured on anti-human Fc chip, PD-1 injected; 1:1 fit
[6] = molecular target: Human PD-1 (soluble analyte in SPR, Table 11) (human) (UniProt Q15116); assay: as above
[7] = molecular target: Human PD-1 extracellular domain, mFc tag (human) (UniProt Q15116); assay: ELISA competition on coated hPro1.ECD.mFc; competitor hPro1L2.ECD.His; experiment 1
[8] = molecular target: Human PD-1 extracellular domain, mFc tag (human) (UniProt Q15116); assay: ELISA competition on coated hPro1.ECD.mFc; competitor hPro1L2.ECD.His; experiment 2
[9] = molecular target: Cynomolgus PD-1 extracellular domain, hFc tag (cynomolgus) (UniProt B0LAJ3); assay: ELISA competition on coated cynoPro1.ECD.hFc; competitor cynoProL1.ECD.hFc.biotin 2.5 µg/mL; experiment 1
[10] = molecular target: Cynomolgus PD-1 extracellular domain, hFc tag (cynomolgus) (UniProt B0LAJ3); assay: ELISA competition on coated cynoPro1.ECD.hFc; competitor cynoProL1.ECD.hFc.biotin 2.5 µg/mL; experiment 2

Sequence of Human PD-1 on CHO-S cells (human) (Q15116 25-288): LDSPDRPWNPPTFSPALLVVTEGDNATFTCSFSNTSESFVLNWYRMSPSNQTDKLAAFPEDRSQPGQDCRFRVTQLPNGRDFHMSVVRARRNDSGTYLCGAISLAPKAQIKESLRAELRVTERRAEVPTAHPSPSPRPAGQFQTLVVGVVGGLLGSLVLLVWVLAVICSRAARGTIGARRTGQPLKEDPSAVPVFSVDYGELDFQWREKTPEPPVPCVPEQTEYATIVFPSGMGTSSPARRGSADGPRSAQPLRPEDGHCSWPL
Sequence of Human PD-1 (soluble analyte in SPR, Table 11) (human) (Q15116 25-167 limits assumed): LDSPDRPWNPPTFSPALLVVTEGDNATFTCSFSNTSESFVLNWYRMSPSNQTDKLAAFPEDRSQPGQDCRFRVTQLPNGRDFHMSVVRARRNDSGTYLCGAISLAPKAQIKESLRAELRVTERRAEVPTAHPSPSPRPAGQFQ
Sequence of Cynomolgus PD-1 (soluble analyte in SPR, Table 11) (cynomolgus) (B0LAJ3 entry or part of it limits assumed): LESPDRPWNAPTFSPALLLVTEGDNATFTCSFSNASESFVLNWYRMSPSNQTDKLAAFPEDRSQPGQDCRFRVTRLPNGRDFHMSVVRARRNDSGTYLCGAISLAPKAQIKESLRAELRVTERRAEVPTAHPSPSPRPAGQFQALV
Sequence of Human PD-1 extracellular domain, mFc tag (human) (Q15116 25-170): as the sequence (B0LAJ3 entry or part of it limits assumed) above, with E2D, A10P, L19V, A35T, R75Q, A144T counted along it
Sequence of Cynomolgus PD-1 extracellular domain, hFc tag (cynomolgus) (B0LAJ3 entry or part of it limits assumed): as the sequence (B0LAJ3 entry or part of it limits assumed) above

- EC50 [1]: 0.409 to 0.749 nM
- EC50 [2]: 0.55 nM
- EC50 [3]: 1.98 nM
- IC50 [4]: 0.544 nM
- Kd [5]: 2.23 nM
- koff [5]: 0.000672 s⁻¹
- kon [5]: 301000 M⁻¹ s⁻¹
- Kd [6]: 2.87 nM
- koff [6]: 0.00116 s⁻¹
- kon [6]: 405000 M⁻¹ s⁻¹
- IC50 [7]: 0.95 nM
- IC50 [8]: 0.534 nM
- IC50 [9]: 0.47 nM
- IC50 [10]: 0.585 nM
Substance: Benchmark antibody 1 (Opdivo, Nivolumab)
